B1: PTPLAD1 (parent)
chain: YINFRHLYKQRRRRYGQKKKKIH
B2: SCNN1D (parent)
chain: RRPSPVLRHLELLDEFARENIDSL

Variants of: B1
Assay: protein stability index of a GFP-peptide fusion (GPS, HEK-293T) (PSI 1-6); higher = more stable
Settings: c terminus: native
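Note: lentivirally expressed fusions sorted by FACS into six bins by GFP to DsRed ratio, PSI derived from sequencing read proportions per bin multiplied by bin number.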

Variant	protein stability index
EINFRHLYKQRRRRYGQKKKKIH [Y1E]	2.5
WINFRHLYKQRRRRYGQKKKKIH [Y1W]	2.96
AINFRHLYKQRRRRYGQKKKKIH [Y1A]	2.93
NINFRHLYKQRRRRYGQKKKKIH [Y1N]	2.97
RINFRHLYKQRRRRYGQKKKKIH [Y1R]	1.35
IINFRHLYKQRRRRYGQKKKKIH [Y1I]	1.17
SINFRHLYKQRRRRYGQKKKKIH [Y1S]	3.15
DINFRHLYKQRRRRYGQKKKKIH [Y1D]	3.48
QINFRHLYKQRRRRYGQKKKKIH [Y1Q]	2.24
CINFRHLYKQRRRRYGQKKKKIH [Y1C]	1.59
VINFRHLYKQRRRRYGQKKKKIH [Y1V]	2.1
TINFRHLYKQRRRRYGQKKKKIH [Y1T]	2.25
LINFRHLYKQRRRRYGQKKKKIH [Y1L]	1.79
KINFRHLYKQRRRRYGQKKKKIH [Y1K]	1.94
PINFRHLYKQRRRRYGQKKKKIH [Y1P]	1.93
HINFRHLYKQRRRRYGQKKKKIH [Y1H]	2.9
GINFRHLYKQRRRRYGQKKKKIH [Y1G]	2.01
YGNFRHLYKQRRRRYGQKKKKIH [I2G]	2.19
YANFRHLYKQRRRRYGQKKKKIH [I2A]	2.7
YCNFRHLYKQRRRRYGQKKKKIH [I2C]	2.2
YFNFRHLYKQRRRRYGQKKKKIH [I2F]	3.06
YDNFRHLYKQRRRRYGQKKKKIH [I2D]	3.45

Variants of: B2
Assay: as above
Settings: c terminus: a fixed tail appended

Variant	protein stability index
RRPSPVLRHLHLLDEFARENIDSL [E11H]	3.18
RRPSPVLRHLVLLDEFARENIDSL [E11V]	2.56
RRPSPVLRHLQLLDEFARENIDSL [E11Q]	3.06
RRPSPVLRHLPLLDEFARENIDSL [E11P]	3.75
RRPSPVLRHLFLLDEFARENIDSL [E11F]	1.89
RRPSPVLRHLALLDEFARENIDSL [E11A]	3.1
RRPSPVSRHLELLDEFARENIDSL [L7S]	3.38
RRPSPVTRHLELLDEFARENIDSL [L7T]	3.48
RRPSPVVRHLELLDEFARENIDSL [L7V]	3.1
RRPSPVWRHLELLDEFARENIDSL [L7W]	2.18
RRPSPVDRHLELLDEFARENIDSL [L7D]	4.49
RRPSPVKRHLELLDEFARENIDSL [L7K]	3.82
RRPSPVRRHLELLDEFARENIDSL [L7R]	3.64
RRPSPVQRHLELLDEFARENIDSL [L7Q]	3.4
RRPSPVPRHLELLDEFARENIDSL [L7P]	4.08
RRPSPVLRHLELLDEFAMENIDSL [R18M]	2.98
RRPSPVLRHLELLDEFAHENIDSL [R18H]	3.17
RRPSPVLRHLELLDEFAEENIDSL [R18E]	3.12
RRPSPVLRHLELLDEFAPENIDSL [R18P]	4.25
RRPSPVLRHLELLDEFAFENIDSL [R18F]	3
RRPSPVLRHLELLDEFASENIDSL [R18S]	3.26
RRPSPVLRHLELLDEFAREGIDSL [N20G]	2.88
RRPSPVLRHLELLDEFAREEIDSL [N20E]	1.88
RRPSPVLRHLELLDEFAREQIDSL [N20Q]	2.08

Variant	protein stability index
RRPSPVLRHLELLDEFARELIDSL [N20L]	2.17
RRPSPVLRHLELLDEFAREKIDSL [N20K]	3.34
RRPSPVLRHLELLDEFAREWIDSL [N20W]	2.85
RRPSPVLRHLELLDEFARESIDSL [N20S]	2.36
RRPSPVLRHLELLDEFAREPIDSL [N20P]	3.04
RRPSPVLRHLELLDEFARENIPSL [D22P]	2.22
RRPSPVLRHLELLDEFARENIASL [D22A]	2.97
RRPSPVLRHLELLDEFARENIWSL [D22W]	1.68
RRPSPVLRHLELLDEFARENISSL [D22S]	2.42
RRPSPVLRHLELLDEFARENITSL [D22T]	2.18
RRPSPVLRHLELLDEFARENIRSL [D22R]	2.76
RRPSPVLRHLELLDEFARENIQSL [D22Q]	2.47
RRPSPVLRHSELLDEFARENIDSL [L10S]	4.16
RRPSPVLRHYELLDEFARENIDSL [L10Y]	3
RRPSPVLRHWELLDEFARENIDSL [L10W]	3.23
RRPSPVLRHKELLDEFARENIDSL [L10K]	4.33
RRPSPVLRHHELLDEFARENIDSL [L10H]	3.98
RRPSPVLRHCELLDEFARENIDSL [L10C]	3.24
RRPSPVLRHGELLDEFARENIDSL [L10G]	3.95
RRPSPVLRHIELLDEFARENIDSL [L10I]	2.1
RRPSPVLRHDELLDEFARENIDSL [L10D]	4.42
RRPSPVLRHNELLDEFARENIDSL [L10N]	4.23
RRPSPVLRHEELLDEFARENIDSL [L10E]	4.49
RRPSPVLRHTELLDEFARENIDSL [L10T]	3.59

Variant	protein stability index
KRPSPVLRHLELLDEFARENIDSL [R1K]	2.92
MRPSPVLRHLELLDEFARENIDSL [R1M]	2.19
HRPSPVLRHLELLDEFARENIDSL [R1H]	2.43
PRPSPVLRHLELLDEFARENIDSL [R1P]	2.58
ARPSPVLRHLELLDEFARENIDSL [R1A]	2.1
TRPSPVLRHLELLDEFARENIDSL [R1T]	2.38
DRPSPVLRHLELLDEFARENIDSL [R1D]	2.86
RRPGPVLRHLELLDEFARENIDSL [S4G]	2.65
RRPRPVLRHLELLDEFARENIDSL [S4R]	2.87
RRPTPVLRHLELLDEFARENIDSL [S4T]	3.15
RRPLPVLRHLELLDEFARENIDSL [S4L]	2.66
RRPVPVLRHLELLDEFARENIDSL [S4V]	2.82
RRPPPVLRHLELLDEFARENIDSL [S4P]	3.17
RRPHPVLRHLELLDEFARENIDSL [S4H]	2.14
RRPSKVLRHLELLDEFARENIDSL [P5K]	3.59
RRPSNVLRHLELLDEFARENIDSL [P5N]	3.22
RRPSSVLRHLELLDEFARENIDSL [P5S]	2.85
RRPSVVLRHLELLDEFARENIDSL [P5V]	2.43
RRPSEVLRHLELLDEFARENIDSL [P5E]	3.77
RRPSYVLRHLELLDEFARENIDSL [P5Y]	2.65
RRPSTVLRHLELLDEFARENIDSL [P5T]	3.05
RRPSPVLRHLELLDEFKRENIDSL [A17K]	3.98
RRPSPVLRHLELLDEFYRENIDSL [A17Y]	2.9
RRPSPVLRHLELLDEFIRENIDSL [A17I]	2.46

Variant	protein stability index
RRPSPVLRHLELLDEFFRENIDSL [A17F]	2.24
RRPSPVLRHLELLEEFARENIDSL [D14E]	2.56
RRPSPVLRHLELLGEFARENIDSL [D14G]	2.83
RRPSPVLRHLELLFEFARENIDSL [D14F]	1.42
RRPSPVLRHLELLTEFARENIDSL [D14T]	2.21
RRPSPVLRHLELLVEFARENIDSL [D14V]	1.37
RRPSPVLRHLELLWEFARENIDSL [D14W]	1.44
RRPSPVLRHLELLHEFARENIDSL [D14H]	2.5
RRPSPVLRHLELLLEFARENIDSL [D14L]	2.86
RRPSPVLRHLELLDETARENIDSL [F16T]	4.21
RRPSPVLRHLELLDECARENIDSL [F16C]	3.61
RRPSPVLRHLELLDESARENIDSL [F16S]	4.57
RRPSPVLRHLELLDEMARENIDSL [F16M]	2.25
RRPSPVLRHLELLDERARENIDSL [F16R]	4.28
RRPSPVLRHLELLDEVARENIDSL [F16V]	3.95
RRPSPVLRHLELLDGFARENIDSL [E15G]	3.34
RRPSPVLRHLELLDTFARENIDSL [E15T]	2.92
RRPSPVLRHLELLDCFARENIDSL [E15C]	2.94
RRPSPVLRHLELLDHFARENIDSL [E15H]	2.92
RRPSPVLRHLELLDMFARENIDSL [E15M]	2.18
RRPSPVLRHLELQDEFARENIDSL [L13Q]	3.78
RRPSPVLRHLELMDEFARENIDSL [L13M]	3.59
RRPSPVLRHLELWDEFARENIDSL [L13W]	3.19
RRPSPVLRHLELVDEFARENIDSL [L13V]	3.6

Variant	protein stability index
RRPSPVLRHLELADEFARENIDSL [L13A]	3.98
RRPSPVLRHLELHDEFARENIDSL [L13H]	4.31
RRPSPVLRHLELTDEFARENIDSL [L13T]	4.13
RRPSPELRHLELLDEFARENIDSL [V6E]	3.37
RRPSPRLRHLELLDEFARENIDSL [V6R]	2.43
RRPSPTLRHLELLDEFARENIDSL [V6T]	2.98
RRPSPQLRHLELLDEFARENIDSL [V6Q]	2.82
RRPSPWLRHLELLDEFARENIDSL [V6W]	1.79
RRPSPALRHLELLDEFARENIDSL [V6A]	2.86
RRPSPYLRHLELLDEFARENIDSL [V6Y]	1.96
RRPSPLLRHLELLDEFARENIDSL [V6L]	1.91
RRPSPGLRHLELLDEFARENIDSL [V6G]	3.96
RRPSPVLRHLELLDEFARENYDSL [I21Y]	2.34
RRPSPVLRHLELLDEFARENVDSL [I21V]	2.87
RRPSPVLRHLELLDEFARENPDSL [I21P]	4.41
RRPSPVLRHLELLDEFARENLDSL [I21L]	2.95
RRPSPVLRHLELLDEFARENWDSL [I21W]	1.87
RRPSPVLRHLELLDEFARENNDSL [I21N]	2.81
RRPSPVLRHLEWLDEFARENIDSL [L12W]	3.1
RRPSPVLRHLEQLDEFARENIDSL [L12Q]	4.51
RRPSPVLRHLEKLDEFARENIDSL [L12K]	4.1
RRPSPVLRHLEMLDEFARENIDSL [L12M]	3.98
RRPSPVLRHLETLDEFARENIDSL [L12T]	4.35
RRPSPVLRHLEFLDEFARENIDSL [L12F]	2.81

Variant	protein stability index
RRPSPVLRHLEELDEFARENIDSL [L12E]	4.08
RRPSPVLRHLELLDEFARENIDSV [L24V]	2.67
RRPSPVLRHLELLDEFARENIDSD [L24D]	3.15
RRPSPVLRHLELLDEFARENIDSY [L24Y]	2.55
RRPSPVLRHLELLDEFARENIDSW [L24W]	2.06
RRPSPVLRHLELLDEFARENIDSM [L24M]	2.4
RRPSPVLRHLELLDEFARENIDSI [L24I]	2.46
RRPSPVLRHLELLDEFARENIDSS [L24S]	3.04
RRPSPVLAHLELLDEFARENIDSL [R8A]	3.33
RRPSPVLVHLELLDEFARENIDSL [R8V]	2.99
RRPSPVLNHLELLDEFARENIDSL [R8N]	4.34
RRPSPVLTHLELLDEFARENIDSL [R8T]	3.59
RRPSPVLHHLELLDEFARENIDSL [R8H]	3.61
RRPSPVLRHLELLDEFARENIDKL [S23K]	3.56
RRPSPVLRHLELLDEFARENIDDL [S23D]	2.57
RRPSPVLRHLELLDEFARENIDIL [S23I]	2.26
RRPSPVLRHLELLDEFARENIDLL [S23L]	2.72
RRPSPVLRHLELLDEFARENIDYL [S23Y]	2.46
RRPSPVLRHLELLDEFARENIDEL [S23E]	2.92
RRPSPVLRHLELLDEFARENIDCL [S23C]	2.5
RRPSPVLRHLELLDEFARENIDWL [S23W]	1.32
RRTSPVLRHLELLDEFARENIDSL [P3T]	2.83
RRKSPVLRHLELLDEFARENIDSL [P3K]	3.06
RRYSPVLRHLELLDEFARENIDSL [P3Y]	2.31

Variant	protein stability index
RRESPVLRHLELLDEFARENIDSL [P3E]	2.38
RRDSPVLRHLELLDEFARENIDSL [P3D]	2.74
RRLSPVLRHLELLDEFARENIDSL [P3L]	2.42
RRRSPVLRHLELLDEFARENIDSL [P3R]	2.85
RRCSPVLRHLELLDEFARENIDSL [P3C]	2.73
RRFSPVLRHLELLDEFARENIDSL [P3F]	1.88
RRNSPVLRHLELLDEFARENIDSL [P3N]	3.06
RRPSPVLRHLELLDEFARTNIDSL [E19T]	3.16
RRPSPVLRHLELLDEFARMNIDSL [E19M]	2.88
RRPSPVLRHLELLDEFARFNIDSL [E19F]	2.46
RRPSPVLRHLELLDEFARNNIDSL [E19N]	2.89
RGPSPVLRHLELLDEFARENIDSL [R2G]	3.52
RHPSPVLRHLELLDEFARENIDSL [R2H]	2.68
RIPSPVLRHLELLDEFARENIDSL [R2I]	2.6
RWPSPVLRHLELLDEFARENIDSL [R2W]	1.78
RAPSPVLRHLELLDEFARENIDSL [R2A]	3.98
RDPSPVLRHLELLDEFARENIDSL [R2D]	3.41
RVPSPVLRHLELLDEFARENIDSL [R2V]	2.93
RCPSPVLRHLELLDEFARENIDSL [R2C]	3.38
RRPSPVLRALELLDEFARENIDSL [H9A]	2.65
RRPSPVLRPLELLDEFARENIDSL [H9P]	3.95
RRPSPVLRDLELLDEFARENIDSL [H9D]	3.99
RRPSPVLRLLELLDEFARENIDSL [H9L]	2.17

— the supplement of paper PMC10567573
